± gives the standard error. For some assays here: Fewer inactive variants are shown than the library holds.
B1: glmS ribozyme (parent)
chain: AUAAAAGCGCCAGAACUACAGAAAUGUAGUUGACGAGGAGGAGGUUUAUCGAAUUUUCGGCGGAUGCCUCCAAA

Tests used:
Conditions in all cases: with glucosamine-6-phosphate
glucosamine-6-phosphate [1] = variants of: B1; experiment: kcat; higher = faster cleavage; RNA array
How it was run: (§1)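 Barcoded ribozyme variants, transcribed in situ by E. coli RNA polymerase on sequenced MiSeq chips, were followed via a hybridised Cy3 probe at 37 °C. Glucosamine-6-phosphate ranged from 40 μM to 10 mM in HEPES/KCl/Mg(OAc)2 buffer. kobs came from decay fits to per-tile medians, and kcat and KM from weighted Michaelis–Menten fits.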

glucosamine-6-phosphate [2] = variants of: B1; experiment: KM; higher = weaker cofactor use; RNA array
How it was run: as §1

glucosamine-6-phosphate [3] = variants of: B1; experiment: self-cleavage kobs at 40 uM GlcN6P; higher = faster cleavage; RNA array
How it was run: as §1

glucosamine-6-phosphate [4] = variants of: B1; experiment: self-cleavage kobs at 160 uM GlcN6P; higher = faster cleavage; RNA array
How it was run: as §1

glucosamine-6-phosphate [5] = variants of: B1; experiment: self-cleavage kobs at 2500 uM GlcN6P; higher = faster cleavage; RNA array
How it was run: as §1

glucosamine-6-phosphate [6] = variants of: B1; experiment: self-cleavage kobs at 10000 uM GlcN6P; higher = faster cleavage; RNA array
How it was run: as §1

glucosamine-6-phosphate [7] = variants of: B1; experiment: self-cleavage kobs at 640 uM GlcN6P; higher = faster cleavage; RNA array
How it was run: as §1

Row | Variant | kcat (glucosamine-6-phosphate [1]) [s⁻¹] | KM (glucosamine-6-phosphate [2]) [µM] | self-cleavage kobs at 40 uM GlcN6P (glucosamine-6-phosphate [3]) [s⁻¹] | self-cleavage kobs at 160 uM GlcN6P (glucosamine-6-phosphate [4]) [s⁻¹] | self-cleavage kobs at 2500 uM GlcN6P (glucosamine-6-phosphate [5]) [s⁻¹] | self-cleavage kobs at 10000 uM GlcN6P (glucosamine-6-phosphate [6]) [s⁻¹] | self-cleavage kobs at 640 uM GlcN6P (glucosamine-6-phosphate [7]) [s⁻¹]
1 | G41U A42C | 1.89e-05 ± 1.4e-06 | 2750 ± 590 | < 1e-05 | < 1e-05 | – | – | –
2 | G43A C70U | 6.4e-05 ± 1.2e-05 | – | – | – | 4.94e-05 ± 8.8e-06 | 5.31e-05 ± 8.3e-06 | –
3 | G43A C67U | 0.000171 ± 1.4e-05 | 1110 ± 320 | – | – | 0.000189 ± 4.2e-05 | 0.000152 ± 9.9e-06 | 6.14e-05 ± 9.1e-06
4 | A42G C70G | 0.000261 ± 5.1e-05 | 261 ± 120 | 4.1e-05 ± 7.7e-06 | 8.07e-05 ± 1.4e-05 | 0.000414 ± 6.1e-05 | 0.000223 ± 2.5e-05 | 0.000216 ± 2.7e-05
5 | A42G C70A | 0.000182 ± 4.2e-05 | – | 4.72e-05 ± 8.8e-06 | 6.35e-05 ± 1.1e-05 | 0.000325 ± 3.7e-05 | 0.000155 ± 1.5e-05 | 0.000154 ± 1.6e-05
6 | A42U U56A | 0.000109 ± 7.4e-06 | 3230 ± 710 | – | – | 4.97e-05 ± 1.4e-05 | 8.21e-05 ± 9.2e-06 | –
7 | G41C C71G | 6.73e-05 ± 1.3e-05 | – | – | – | 6.12e-05 ± 7.2e-06 | 5.71e-05 ± 4.9e-06 | –
8 | G41C U56G | 0.000101 ± 5.7e-06 | 2280 ± 390 | – | – | 4.78e-05 ± 1.5e-05 | 8.29e-05 ± 1.2e-05 | 2.47e-05 ± 1e-05
9 | G40U U49G | 8.53e-05 ± 3.1e-05 | – | – | – | 9.77e-05 ± 2e-05 | 6.94e-05 ± 1.1e-05 | –
10 | G41C C70U | 0.000551 ± 0.00016 | – | 4.81e-05 ± 7.7e-06 | 9.61e-05 ± 2.4e-05 | 0.000498 ± 6.2e-05 | 0.000516 ± 5.8e-05 | 0.000173 ± 2.2e-05
11 | A42U C70A | 0.00013 ± 6.8e-06 | 813 ± 290 | – | – | 9.98e-05 ± 1.2e-05 | 0.00012 ± 9.1e-06 | –
12 | G40U U56C | 1.13e-05 ± 5.2e-06 | – | < 1e-05 | – | – | – | –
13 | G41U C70U | 0.0009 ± 0.00017 | – | 0.000457 ± 3.9e-05 | 0.000709 ± 0.0001 | 0.00131 ± 0.00021 | – | 0.000714 ± 0.00011
14 | G41U C70A | 0.0306 ± 0.013 | – | 0.00288 ± 0.00022 | 0.00721 ± 0.0009 | 0.0568 ± 0.016 | – | 0.0189 ± 0.0026
15 | G41C U46A | 0.00012 ± 1.2e-05 | 3110 ± 830 | – | – | 5.8e-05 ± 1.3e-05 | 9.03e-05 ± 1.3e-05 | –
16 | G41C U46G | 0.000114 ± 3.4e-06 | 2060 ± 210 | – | – | 6.37e-05 ± 1.1e-05 | 9.41e-05 ± 1e-05 | –
17 | G41A G66U C70A | 0.000127 ± 3e-05 | – | – | – | 6.32e-05 ± 2.8e-05 | 0.000131 ± 2e-05 | 9.26e-05 ± 3.3e-05
